Test results taken from publication PMC8822698, “Structural and biological insights into Klebsiella pneumoniae surface polysaccharide degradation by a bacteriophage K1 lyase: implications for clinical use” (Journal of Biomedical Science, 2022).

Biological target: the molecule itself
Assay: AUC; sedimentation at 20 °C and 20,000 rpm; 25 mM Tris-HCl, 100 mM NaCl, pH 7.5; data analysed with SEDFIT

B1: K1 CPS-specific depolymerase K1 lyase of bacteriophage NTUH-K2044-K1-1 (enzyme, UniProt A0A068Q5Q5 1-651, looked up)
chain: MALIRLVAPERVFSDLASMVAYPNFQVQDKITLLGSAGGDFTFTTTASVVDNGTVFAVPGGYLLRKFVGPAYSSWFSNWTGIVTFMSAPNRHLVVDTVLQATSVLNIKSNSTLEFTDTGRILPDAAVARQVLNITGSAPSVFVPLAADAAAGSKVITVAAGALSAVKGTYLYLRSNKLCDGGPNTYGVKISQIRKVVGVSTSGGVTSIRLDKALHYNYYLSDAAEVGIPTMVENVTLVSPYINEFGYDDLNRFFTSGISANFAADLHIQDGVIIGNKRPGASDIEGRSAIKFNNCVDSTVKGTCFYNIGWYGVEVLGCSEDTEVHDIHAMDVRHAISLNWQSTADGDKWGEPIEFLGVNCEAYSTTQAGFDTHDIGKRVKFVRCVSYDSADDGFQARTNGVEYLNCRAYRAAMDGFASNTGVAFPIYRECLAYDNVRSGFNCSYGGGYVYDCEAHGSQNGVRINGGRVKGGRYTRNSSSHIFVTKDVAETAQTSLEIDGVSMRYDGTGRAVYFHGTVGIDPTLVSMSNNDMTGHGLFWALLSGYTVQPTPPRMSRNLLDDTGIRGVATLVAGEATVNARVRGNFGSVANSFKWVSEVKLTRLTFPSSAGALTVTSVAQNQDVPTPNPDLNSFVIRSSNAADVSQVAWEVYL
notes: K1 CPS-specific depolymerase (K1 lyase) encoded by orf34 of bacteriophage NTUH-K2044-K1-1, GenBank BAP15746, amino acids 1-651; Cloned into pET28a via NdeI and XhoI; This cloning would likely give an N-terminal His6 tag, but that is a surmise; also called K1 CPS depolymerase; polysaccharide depolymerase (PDP); source: E. coli BL21 (DE3), purified (nickel-chelating Sepharose, Superdex-200 gel …)
stoichiometry N: 3
